The target in experiment [1] is mix of 3 carriers alone (BSA + OVA + KLH) (bovine; keyhole limpet) (UniProt P02769). Briefly: monoclonal phage ELISA, negative control coating with carriers alone, replicate 1.
For experiment [2] the target is unchanged. Kind of experiment: monoclonal phage ELISA, negative control coating with carriers alone, replicate 2. For orientation: In an ELISA, binding on a coated surface is turned into a signal by an enzyme label.

The values that follow come from US12590147.

Sequence of mix of 3 carriers alone (BSA + OVA + KLH) (bovine; keyhole limpet) (P02769 25-607, chain 1 of 2): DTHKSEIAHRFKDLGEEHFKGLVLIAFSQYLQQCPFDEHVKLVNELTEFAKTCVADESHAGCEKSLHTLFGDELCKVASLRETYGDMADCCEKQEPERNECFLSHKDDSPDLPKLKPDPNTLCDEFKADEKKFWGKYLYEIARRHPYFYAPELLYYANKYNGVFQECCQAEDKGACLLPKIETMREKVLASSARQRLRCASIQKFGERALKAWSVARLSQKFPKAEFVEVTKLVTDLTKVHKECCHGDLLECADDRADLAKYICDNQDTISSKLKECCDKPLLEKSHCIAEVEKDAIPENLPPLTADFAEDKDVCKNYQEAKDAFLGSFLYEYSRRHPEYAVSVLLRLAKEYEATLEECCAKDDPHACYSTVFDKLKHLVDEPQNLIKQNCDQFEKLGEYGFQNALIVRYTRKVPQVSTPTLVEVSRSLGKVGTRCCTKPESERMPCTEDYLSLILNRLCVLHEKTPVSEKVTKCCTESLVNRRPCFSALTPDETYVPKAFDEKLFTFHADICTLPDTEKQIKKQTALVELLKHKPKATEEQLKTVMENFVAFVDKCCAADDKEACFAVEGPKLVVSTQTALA
Sequence of mix of 3 carriers alone (BSA + OVA + KLH) (bovine; keyhole limpet) (P01012 2-386, chain 2 of 2, further chain): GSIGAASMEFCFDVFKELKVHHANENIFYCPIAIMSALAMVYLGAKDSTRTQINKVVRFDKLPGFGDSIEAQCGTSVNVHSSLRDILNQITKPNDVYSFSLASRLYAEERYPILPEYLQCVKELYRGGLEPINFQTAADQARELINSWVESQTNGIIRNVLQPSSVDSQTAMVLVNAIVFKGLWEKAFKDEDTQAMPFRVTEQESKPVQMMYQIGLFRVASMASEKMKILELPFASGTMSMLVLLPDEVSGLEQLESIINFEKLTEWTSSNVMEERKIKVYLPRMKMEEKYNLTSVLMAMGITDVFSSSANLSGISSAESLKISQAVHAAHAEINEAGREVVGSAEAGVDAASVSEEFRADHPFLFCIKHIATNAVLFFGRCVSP

B1: R4P1-C1 (phage Fab clone) (Fab, V domains shown)
VH: QVQLQQSGPGLVKPSQTLSLTCAISGDSVSSNSAAWNWIRQSPSRGLEWLGRTYYRSKWYNDYAVSVKSRITINPDTSKNQFSLQLNSVTPEDTAVYYCARDDYDPVGMYAFDIWGQGTLVTVSS
VL: LPVLTQPPSASGTPGQRVTISCSGSSSNIGSNTVNWYQQLPGTAPKLLIYRNTQRPSGVPDRFSGSKSGTSASLAISGLQSEDEADYYCEAWDDSMRGAAFGGGTQLTVL
B1: the ELISA signal in experiment [1] and in experiment [2] was 0.06 throughout.
